{
  "source": "patent US20170314054A1",
  "about": "(ROCHE SEQUENCING SOLUTIONS, published 2017)",
  "molecular_target": "T1, microbial transglutaminase from Streptomyces mobaraensis (MTG) (Streptomyces mobaraensis, UniProt P81453 77-407)",
  "T1 sequence (looked up)": "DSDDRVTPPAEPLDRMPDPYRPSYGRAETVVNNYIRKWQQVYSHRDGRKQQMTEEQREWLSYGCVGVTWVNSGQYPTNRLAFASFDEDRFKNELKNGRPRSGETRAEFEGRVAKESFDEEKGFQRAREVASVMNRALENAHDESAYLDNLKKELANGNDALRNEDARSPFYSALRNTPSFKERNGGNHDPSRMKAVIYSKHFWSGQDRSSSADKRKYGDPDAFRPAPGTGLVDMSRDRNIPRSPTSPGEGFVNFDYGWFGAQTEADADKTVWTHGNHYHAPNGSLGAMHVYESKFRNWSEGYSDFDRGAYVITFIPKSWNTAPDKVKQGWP",
  "assay": "cell-based or functional assay",
  "note": "No end group written: not given here.",
  "data": [
    {"binder": "RYALQ (not fully specified)", "note": "[RYALQ (SEQ ID NO: 14)]", "values": [
      {"measurement": "Log2(signal), array MTG labeling with N-(Biotinyl)cadaverine", "result": "15.3 Log2(signal)"}
    ]},
    {"binder": "EFVAQ (also: flanked by G:S (3:1) linkers on peptide array)", "note": "[EFVAQ (SEQ ID NO: 21)]", "values": [
      {"measurement": "Log2(signal), array MTG labeling with N-(Biotinyl)cadaverine", "result": "15.2 Log2(signal)"}
    ]},
    {"binder": "YFALQ (not fully specified)", "note": "[YFALQ (SEQ ID NO: 15)]", "values": [
      {"measurement": "Log2(signal), array MTG labeling with N-(Biotinyl)cadaverine", "result": "15.3 Log2(signal)"}
    ]},
    {"binder": "DYALQ", "note": "[DYALQ (SEQ ID NO: 1)]", "values": [
      {"measurement": "Log2(signal), array MTG labeling with N-(Biotinyl)cadaverine", "result": "15.5 Log2(signal)"}
    ]},
    {"binder": "PYVLQ (also: flanked by G:S (3:1) linkers on peptide array)", "note": "[PYVLQ (SEQ ID NO: 16)]", "values": [
      {"measurement": "Log2(signal), array MTG labeling with N-(Biotinyl)cadaverine", "result": "15.3 Log2(signal)"}
    ]},
    {"binder": "EYALQ (also: flanked by G:S (3:1) linkers on peptide array)", "note": "[EYALQ (SEQ ID NO: 4)]", "values": [
      {"measurement": "Log2(signal), array MTG labeling with N-(Biotinyl)cadaverine", "result": "15.5 Log2(signal)"}
    ]},
    {"binder": "DYTLQ", "note": "[DYTLQ (SEQ ID NO: 11)]", "values": [
      {"measurement": "Log2(signal), array MTG labeling with N-(Biotinyl)cadaverine", "result": "15.3 Log2(signal)"}
    ]},
    {"binder": "WYALQ (not fully specified)", "note": "[WYALQ (SEQ ID NO: 17)]", "values": [
      {"measurement": "Log2(signal), array MTG labeling with N-(Biotinyl)cadaverine", "result": "15.3 Log2(signal)"}
    ]},
    {"binder": "EYFLQ (also: flanked by G:S (3:1) linkers on peptide array)", "note": "[EYFLQ (SEQ ID NO: 24)]", "values": [
      {"measurement": "Log2(signal), array MTG labeling with N-(Biotinyl)cadaverine", "result": "15.2 Log2(signal)"}
    ]},
    {"binder": "NYVLQ (also: flanked by G:S (3:1) linkers on peptide array)", "note": "[NYVLQ (SEQ ID NO: 12)]", "values": [
      {"measurement": "Log2(signal), array MTG labeling with N-(Biotinyl)cadaverine", "result": "15.3 Log2(signal)"}
    ]},
    {"binder": "DYVLQ (also: flanked by G:S (3:1) linkers on peptide array)", "note": "[DYVLQ (SEQ ID NO: 2)]", "values": [
      {"measurement": "Log2(signal), array MTG labeling with N-(Biotinyl)cadaverine", "result": "15.5 Log2(signal)"}
    ]},
    {"binder": "DYVAQ", "note": "[DYVAQ (SEQ ID NO: 20)]", "values": [
      {"measurement": "Log2(signal), array MTG labeling with N-(Biotinyl)cadaverine", "result": "15.2 Log2(signal)"}
    ]},
    {"binder": "NYALQ (also: flanked by G:S (3:1) linkers on peptide array)", "note": "[NYALQ (SEQ ID NO: 3)]", "values": [
      {"measurement": "Log2(signal), array MTG labeling with N-(Biotinyl)cadaverine", "result": "15.5 Log2(signal)"}
    ]},
    {"binder": "NFVLQ (not fully specified; also: flanked by G:S (3:1) linkers on peptide array)", "note": "[NFVLQ (SEQ ID NO: 25)]", "values": [
      {"measurement": "Log2(signal), array MTG labeling with N-(Biotinyl)cadaverine", "result": "15.2 Log2(signal)"}
    ]},
    {"binder": "FYALQ (also: flanked by G:S (3:1) linkers on peptide array)", "note": "[FYALQ (SEQ ID NO: 10)]", "values": [
      {"measurement": "Log2(signal), array MTG labeling with N-(Biotinyl)cadaverine", "result": "15.4 Log2(signal)"}
    ]},
    {"binder": "SYALQ (not fully specified)", "note": "[SYALQ (SEQ ID NO: 18)]", "values": [
      {"measurement": "Log2(signal), array MTG labeling with N-(Biotinyl)cadaverine", "result": "15.2 Log2(signal)"}
    ]},
    {"binder": "EYVAQ (also: flanked by G:S (3:1) linkers on peptide array)", "note": "[EYVAQ (SEQ ID NO: 13)]", "values": [
      {"measurement": "Log2(signal), array MTG labeling with N-(Biotinyl)cadaverine", "result": "15.3 Log2(signal)"}
    ]},
    {"binder": "DFYLQ", "note": "[DFYLQ (SEQ ID NO: 22)]", "values": [
      {"measurement": "Log2(signal), array MTG labeling with N-(Biotinyl)cadaverine", "result": "15.2 Log2(signal)"}
    ]},
    {"binder": "EFALQ (also: flanked by G:S (3:1) linkers on peptide array)", "note": "[EFALQ (SEQ ID NO: 23)]", "values": [
      {"measurement": "Log2(signal), array MTG labeling with N-(Biotinyl)cadaverine", "result": "15.2 Log2(signal)"}
    ]},
    {"binder": "HYALQ (also: flanked by G:S (3:1) linkers on peptide array)", "note": "[HYALQ (SEQ ID NO: 19)]", "values": [
      {"measurement": "Log2(signal), array MTG labeling with N-(Biotinyl)cadaverine", "result": "15.2 Log2(signal)"}
    ]}
  ]
}
